The text below walks through data of the Human Domainome abundance scans (Beltran et al. 2025).

± gives the uncertainty stated by the source.

To fix the notation:
B1: CD2-associated protein, residues 271 to 331; numbered along this chain, Q9Y5K6 (parent)
chain: KEYCRTLFAYEGTNEDELTFKEGEIIHLISKETGEAGWWRGELNGKEGVFPDNFAVQINEL

The variants in this data set derive from B1. Description: abundance fitness (aPCA) (normalised: wild type 0, dead -1); higher = more abundant; growth selection in yeast, the domain comes from the species named. Conditions: Homo sapiens.
Regarding KEYCRTLFAYEGTNEDELTFKEGEIIHLISKETGEAGWWRGELNGKEAVFPDNFAVQINEL, the abundance fitness is -0.65 ± 0.093.
As to KEYCRTLFAYEGTNEDELTFKEGEIIHLISKETGEAGWWRGELNGKEKVFPDNFAVQINEL, the abundance fitness is -0.746 ± 0.17.
The value for KEYCRTLFAYEGTNEDELTFKEGEIIHLISKETGEAGWWRGELNGKEIVFPDNFAVQINEL was -0.725 ± 0.2.
Take KEYCRTLFAYEGTNEDELTFKEGEIIHLISKETGEAGWWRGELNGKEMVFPDNFAVQINEL: the abundance fitness is -0.947 ± 0.15.
For the variant KEYCRTLFAYEGTNEDELTFKEGEIIHLISKETGEAGWWRGELNGKEEVFPDNFAVQINEL, the abundance fitness was -0.688 ± 0.08.
With KEYCRTLFAYEGTNEDELTFKEGEIIHLISKETGEAGWWRGELNGKEWVFPDNFAVQINEL, the abundance fitness was -0.949 ± 0.074.
Turning to KEYCRTLFAYEGTNEDELTFKEGEIIHLISKETGEAGWWRGELNGKEPVFPDNFAVQINEL, the abundance fitness is -0.932 ± 0.12.
Turning to KEYCRTLFAYEGTNEDELTFKEGEIIHLISKETGEAGWWRGELNGKERVFPDNFAVQINEL, the abundance fitness is -0.856 ± 0.059.
KEYCRTLFAYEGTNEDELTFKEGEIIHLISKETGEAGWWRGELNGKEVVFPDNFAVQINEL: the abundance fitness was -0.864 ± 0.087.
For the variant KEYCRTLFAYEGTNEDELTFKEGEIIHLISKETGEAGWWRGELNGKETVFPDNFAVQINEL, the abundance fitness was -1.07 ± 0.15.
Take KEYCRTLFAYEGTNEDELTFKEGEIIHLISKETGEAGWWRGELNGKENVFPDNFAVQINEL: the abundance fitness is -0.998 ± 0.3.
The value for KEYCRTLFAYEGTNEDELTFKEGEIIHLISKETGEAGWWRGELNGKELVFPDNFAVQINEL was -0.753 ± 0.061.
The figure for KEYCRTLFAYEGTNEDELTFKEGEIIHLISKETGEAGWWRGELNGKEYVFPDNFAVQINEL is -1.18 ± 0.34; for KEYCRTLFAYEGTNEDELTFKEGEIIHLISKETGEAGWWRGELNGKEGVVPDNFAVQINEL it is -0.674 ± 0.086; for KEYCRTLFAYEGTNEDELTFKEGEIIHLISKETGEAGWWRGELNGKEGVIPDNFAVQINEL it is -0.822 ± 0.2.
Turning to KEYCRTLFAYEGTNEDELTFKEGEIIHLISKETGEAGWWRGELNGKEGVDPDNFAVQINEL, the abundance fitness was -0.626 ± 0.13.
KEYCRTLFAYEGTNEDELTFKEGEIIHLISKETGEAGWWRGELNGKEGVWPDNFAVQINEL: the abundance fitness was -0.792 ± 0.11.
The figure for KEYCRTLFAYEGTNEDELTFKEGEIIHLISKETGEAGWWRGELNGKEGVCPDNFAVQINEL is -0.516 ± 0.16.
The value for KEYCRTLFAYEGTNEDELTFKEGEIIHLISKETGEAGWWRGELNGKEGVTPDNFAVQINEL was -0.705 ± 0.12.
Regarding KEYCRTLFAYEGTNEDELTFKEGEIIHLISKETGEAGWWRGELNGKEGVMPDNFAVQINEL, the abundance fitness was -0.845 ± 0.14.
As for KEYCRTLFAYEGTNEDELTFKEGEIIHLISKETGEAGWWRGELNGKEGVPPDNFAVQINEL, the abundance fitness was -0.973 ± 0.24.
In the case of KEYCRTLFAYEGTNEDELTFKEGEIIHLISKETGEAGWWRGELNGKEGVQPDNFAVQINEL, the abundance fitness was -0.732 ± 0.12.
Consider KEYCRTLFAYEGTNEDELTFKEGEIIHLISKETGEAGWWRGELNGKEGVKPDNFAVQINEL, for which the abundance fitness is -0.993 ± 0.17.
The value for KEYCRTLFAYEGTNEDELTFKEGEIIHLISKETGEAGWWRGELNGKEGVSPDNFAVQINEL was -0.818 ± 0.11.
Consider KEYCRTLFAYEGTNEDELTFKEGEIIHLISKETGEAGWWRGELNGKEGVNPDNFAVQINEL, for which the abundance fitness is -0.809 ± 0.36.
The value for KEYCRTLFAYEGTNEDELTFKEGEIIHLISKETGEAGWWRGELNGKEGVRPDNFAVQINEL was -0.614 ± 0.066; that for KEYCRTLFAYEGTNEDELTFKEGEIIHLISKETGEAGWWRGELNGKEGVLPDNFAVQINEL was -0.668 ± 0.07.
Take KEYCRTLFAYEGTNEDELTFKEGEIIHLISKETGEAGWWRGELNGKEGVAPDNFAVQINEL: the abundance fitness was -0.539 ± 0.082.
KEYCRTLFAYEGTNEDELTFKEGEIIHLISKETGEAGWWRGELNGIEGVFPDNFAVQINEL: the abundance fitness was -0.309 ± 0.13.
The value for KEYCRTLFAYEGTNEDELTFKEGEIIHLISKETGEAGWWRGELNGHEGVFPDNFAVQINEL was 0.083 ± 0.12; that for KEYCRTLFAYEGTNEDELTFKEGEIIHLISKETGEAGWWRGELNGNEGVFPDNFAVQINEL was -0.286 ± 0.18; that for KEYCRTLFAYEGTNEDELTFKEGEIIHLISKETGEAGWWRGELNGMEGVFPDNFAVQINEL was -0.235 ± 0.084.
The value for KEYCRTLFAYEGTNEDELTFKEGEIIHLISKETGEAGWWRGELNGQEGVFPDNFAVQINEL was -0.265 ± 0.086; that for KEYCRTLFAYEGTNEDELTFKEGEIIHLISKETGEAGWWRGELNGYEGVFPDNFAVQINEL was -0.34 ± 0.12.
The figure for KEYCRTLFAYEGTNEDELTFKEGEIIHLISKETGEAGWWRGELNGGEGVFPDNFAVQINEL is -0.924 ± 0.24; for KEYCRTLFAYEGTNEDELTFKEGEIIHLISKETGEAGWWRGELNGPEGVFPDNFAVQINEL it is -1.05 ± 0.19; for KEYCRTLFAYEGTNEDELTFKEGEIIHLISKETGEAGWWRGELNGDEGVFPDNFAVQINEL it is -0.39 ± 0.19.
As to KEYCRTLFAYEGTNEDELTFKEGEIIHLISKETGEAGWWRGELNGVEGVFPDNFAVQINEL, the abundance fitness was -0.033 ± 0.068.
The value for KEYCRTLFAYEGTNEDELTFKEGEIIHLISKETGEAGWWRGELNGLEGVFPDNFAVQINEL was -0.223 ± 0.054; that for KEYCRTLFAYEGTNEDELTFKEGEIIHLISKETGEAGWWRGELNGCEGVFPDNFAVQINEL was -0.056 ± 0.27.
The figure for KEYCRTLFAYEGTNEDELTFKEGEIIHLISKETGEAGWWRGELNGREGVFPDNFAVQINEL is 0.012 ± 0.056; for KEYCRTLFAYEGTNEDELTFKEGEIIHLISKETGEAGWWRGELNGTEGVFPDNFAVQINEL it is -0.273 ± 0.074; for KEYCRTLFAYEGTNEDELTFKEGEIIHLISKETGEAGWWRGELNGEEGVFPDNFAVQINEL it is -0.348 ± 0.13.
Consider KEYCRTLFAYEGTNEDELTFKEGEIIHLISKETGEAGWWRGELNGSEGVFPDNFAVQINEL, for which the abundance fitness was -0.338 ± 0.062.
